The experiment has as its target FvCamlp (calmodulin like EF hand protein of Flammulina velutipes), freed of the GST tag (Flammulina velutipes). Kind of experiment: SEC; Superdex 200, 25 mM Tris-HCl pH 7.5, 150 mM NaCl, 4 °C, flow 0.4 ml/min; in absence (5.0 mM EGTA) and presence of Ca2+ (5.0 mM); monomer to dimer.

As usually defined, the stoichiometry N is a count of units in the complex or per binding partner. “FvCamlp (calmodulin like EF hand protein of Flammulina velutipes), freed of the GST tag (natural protein)”: the stoichiometry N was 2.

Source of the values: publication PMC4600981.
